Patent publication US20240254229A1 (Molecular Partners, published 2024)
Numbering of substitutions follows the chain as printed. Where two headings read alike, the source gives them in different places. One block for each binder: values may come before it.

Key:
[1] = biological target: T1, human CD3 on primary human pan-T cells (human, UniProt P07766 23-207; P09693 23-182; P04234 22-171; P20963 22-164); test: Mirrorball cytometry on primary human pan-T cells, 600 µM HSA
T1 construct: whole, on cells; Native complex on T cells isolated from PBMC; also called CD3 on Pan-T cells
T1 sequence (P07766 23-207, chain 1 of 4): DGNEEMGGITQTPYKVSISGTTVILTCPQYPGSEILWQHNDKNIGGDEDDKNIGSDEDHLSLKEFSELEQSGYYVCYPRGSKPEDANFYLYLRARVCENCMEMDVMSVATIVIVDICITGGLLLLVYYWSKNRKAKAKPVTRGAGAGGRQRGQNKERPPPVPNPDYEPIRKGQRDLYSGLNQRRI
T1 sequence (P09693 23-182, chain 2 of 4): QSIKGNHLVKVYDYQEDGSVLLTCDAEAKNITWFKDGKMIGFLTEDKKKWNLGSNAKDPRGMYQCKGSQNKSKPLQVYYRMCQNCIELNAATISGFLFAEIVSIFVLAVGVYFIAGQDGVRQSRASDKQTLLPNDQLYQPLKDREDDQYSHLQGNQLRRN
T1 sequence (P04234 22-171, chain 3 of 4): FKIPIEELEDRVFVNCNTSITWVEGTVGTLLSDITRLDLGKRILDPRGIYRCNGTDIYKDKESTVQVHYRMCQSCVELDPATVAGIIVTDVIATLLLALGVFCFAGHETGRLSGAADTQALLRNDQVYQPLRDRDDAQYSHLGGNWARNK
T1 sequence (P20963 22-164, chain 4 of 4): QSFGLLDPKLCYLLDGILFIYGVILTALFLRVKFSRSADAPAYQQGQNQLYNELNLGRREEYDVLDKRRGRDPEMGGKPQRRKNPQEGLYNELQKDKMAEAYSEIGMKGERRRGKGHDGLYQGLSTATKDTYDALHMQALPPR
Experimental: (§1) The determination of CD3 binding was performed with primary human T cells using Mirrorball laser scanning imaging cytometry. Therefore, primary T cells were isolated from human peripheral blood mononuclear cells (PBMCs) using a pan-T cell purification kit (Miltenyi Biotec). A titration of DARPin® protein #7, DARPin® protein #8 and DARPin® protein #9 and DARPin® protein #10, formatted into a trispecific format (including CD33 and CD123 binding ankyrin repeat domains), DARPin® protein #11, DARPin® protein #12, DARPin® protein #13 and DARPin® protein #14 UN tetraspecific format (including an additional ankyrin repeat domain binding specifically to human serum albumin) were incubated with 50′000 pan-T cells per well in presence of 600 μM human serum albumin (to mimic physiological serum concentration) for 30 minutes at 4° C. Two benchmark T-cell engagers, AMG330 and flotetuzumab were applied as controls, targeting CD33 or CD123. After washing, CD3 binding was detected by 1:100-diluted anti-penta-His Alexa Fluor 488 antibody (Qiagen). After 30 min incubation at 4° C., cells were washed and resuspended in Cytofix fixation buffer (BD Biosciences) and counterstained by 5 μM DRAQ5 (Abcam) for 15 min at RT. Median of mean fluorescence intensities of Alexa Fluor 488 binding on far-red counterstained cells were measured by Mirrorball using Cellista software (SPT Labtech) and data was plotted using GraphPad Prism 8.

[2] = biological target: T2, human scCD3εγ (scCD3εγ_Avi-Bio) (human, biotin on the C-terminal Avi-tag (in vitro, BirA) where the biotinylated form was used); test: SPR (ProteOn), biotinylated scCD3εγ on NLC chip, DARPin as analyte
T2 construct: Used for all SPR and HTRF results on human CD3; also called recombinant human CD3; human CD3
T2 chain: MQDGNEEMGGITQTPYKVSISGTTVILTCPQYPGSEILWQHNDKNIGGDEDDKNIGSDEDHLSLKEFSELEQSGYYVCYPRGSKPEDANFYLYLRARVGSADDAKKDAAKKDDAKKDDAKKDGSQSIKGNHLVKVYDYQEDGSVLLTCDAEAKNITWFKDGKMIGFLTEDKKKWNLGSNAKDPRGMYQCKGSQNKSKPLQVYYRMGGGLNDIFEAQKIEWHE
Experimental: The binding affinities of four purified ankyrin repeat proteins on recombinant human CD3 target were analyzed using a ProteOn instrument (BioRad) and the measurement was performed according standard procedures known to the person skilled in the art. For that, DARPin® protein #7, DARPin® protein #8 and DARPin® protein #9 and DARPin® protein #10 of the invention were subcloned and expressed as described above into derivatives of the pQE30 (Qiagen) expression vector, containing an N-terminal His-tag, CD33 and CD123 binding ankyrin repeat domains, followed by one of the four CD3 specific ankyrin repeat protein constructs.
Briefly, biotinylated human scCD3εγ was diluted in PBST (PBS, pH 7.4 containing 0.005% Tween 200) and coated on a NLC chip (BioRad) to a level of around 700-1400 resonance units (RU). The interaction of ankyrin repeat protein and human CD3 was then measured by injecting 300 μl running buffer (PBS, pH 7.4 containing 0.005% Tween 200) containing serial dilutions of ankyrin repeat proteins covering a concentration range between 64 nM and 4 nM for multi-trace SPR measurements, followed by a running buffer flow for at least 10 minutes at a constant flow rate of 60 μl/min (off-rate measurement). The regeneration was performed using 30 μl of 10 mM Glycine pH 2. The signals (i.e. resonance unit (RU) values) of the interspots and a reference injection (i.e. injection of running buffer only) were subtracted from the RU traces obtained after injection of ankyrin repeat protein (double-referencing). While binding was too weak for DARPin® protein #7, binding parameters (KD, on-rate, off-rate) against CD3 were determined for affinity matured constructs. On-rates (kₒₙ) and dissociation constants (KD) are given only as approximation because binding equilibrium was not appropriately reached even at highest samples concentration, leading to non-optimal fits for on-rates.
Dissociation constants (KD) were calculated from the estimated on- and off-rates using standard procedures known to the person skilled in the art.

[3] = biological target: T1, human CD3 on primary human pan-T cells; test: Mirrorball laser scanning cytometry on primary human pan-T cells, anti-penta-His Alexa Fluor 488 detection, 600 µM HSA
Experimental: as §1

[4] = biological target: T1, human CD3 on primary human pan-T cells; test: Mirrorball cytometry on primary human pan-T cells, 600 µM HSA; remark: listed apart in the source
Experimental: as §1, with “of T cell” for “of CD3”, “protein #27,” for “protein #7,”, “protein #28” for “protein #8”, “protein #29” for “protein #9”, “protein #30” for “protein #10, formatted into a trispecific format (including CD33 and CD123 binding ankyrin repeat domains), DARPin® protein #11, DARPin® protein #12, DARPin® protein #13 and DARPin® protein #14 UN tetraspecific format (including an additional ankyrin repeat domain binding specifically to human serum albumin)”

[5] = biological target: T3, biotinylated extracellular domain of human CD33 (SEQ ID NO: 87), Fc and Avi tagged (human, UniProt P20138 18-259, biotinylated with BirA-GST (Avi tag)); test: SPR (ProteOn XPR36), target on GLC chip, DARPin as analyte
T3 construct: also called hCD33; human target hCD33
T3 sequence (P20138 18-259 R69G): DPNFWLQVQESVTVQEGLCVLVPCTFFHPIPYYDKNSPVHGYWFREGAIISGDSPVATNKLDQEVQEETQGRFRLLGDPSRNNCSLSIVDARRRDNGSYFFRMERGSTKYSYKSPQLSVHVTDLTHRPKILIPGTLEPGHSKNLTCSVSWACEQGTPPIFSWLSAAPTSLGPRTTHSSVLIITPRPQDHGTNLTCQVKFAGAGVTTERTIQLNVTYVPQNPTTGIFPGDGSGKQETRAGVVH

[6] = biological target: T4, extracellular domain of human CD70 (SEQ ID NO: 89), hCD70-Fc-trimer, ACRO Biosystems (human, UniProt P32970 52-193, chemically biotinylated where the biotinylated form was used); test: as above
T4 construct: also called human CD70-Fc-trimer; Bio.CD70
T4 sequence: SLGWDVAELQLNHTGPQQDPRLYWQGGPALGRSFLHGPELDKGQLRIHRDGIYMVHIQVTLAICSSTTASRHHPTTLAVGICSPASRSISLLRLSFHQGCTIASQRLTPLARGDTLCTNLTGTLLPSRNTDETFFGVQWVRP

human serum albumin = biological target: T5, human serum albumin (human, UniProt P02768 25-609); test: SPR (ProteOn XPR36), target on GLC chip
T5 construct: also called HSA; SA
T5 sequence (P02768 25-609 limits assumed): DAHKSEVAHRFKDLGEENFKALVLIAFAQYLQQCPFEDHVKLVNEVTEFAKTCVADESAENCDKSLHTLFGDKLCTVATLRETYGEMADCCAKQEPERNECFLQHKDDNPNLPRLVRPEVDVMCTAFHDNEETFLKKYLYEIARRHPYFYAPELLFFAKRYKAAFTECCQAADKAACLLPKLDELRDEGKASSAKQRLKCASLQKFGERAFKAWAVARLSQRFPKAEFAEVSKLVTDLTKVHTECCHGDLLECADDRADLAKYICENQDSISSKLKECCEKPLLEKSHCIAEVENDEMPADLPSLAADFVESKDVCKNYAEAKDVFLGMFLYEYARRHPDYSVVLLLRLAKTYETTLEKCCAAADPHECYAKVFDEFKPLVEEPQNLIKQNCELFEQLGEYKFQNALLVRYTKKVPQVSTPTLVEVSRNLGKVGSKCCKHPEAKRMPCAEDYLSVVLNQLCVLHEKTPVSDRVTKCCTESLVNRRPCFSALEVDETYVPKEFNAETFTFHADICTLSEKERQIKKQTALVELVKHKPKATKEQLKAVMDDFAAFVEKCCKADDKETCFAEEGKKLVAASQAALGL
Excerpt: (§2) For that, DARPin® protein #27, DARPin® protein #29, DARPin® protein #47 and DARPin® protein #48 and DARPin® protein #49, DARPin® protein #50, DARPin® protein #51, DARPin® protein #52, DARPin® protein #31, DARPin® protein #53, DARPin® protein #54, DARPin® protein #55, DARPin® protein #34, DARPin® protein #33, DARPin® protein #39 and DARPin® protein #36 were subcloned and expressed as described above into derivatives of the pQE30 (Qiagen) expression vector, containing an N-terminal His-tag, CD33, CD123 and/or CD70 binding ankyrin repeat domains, followed by a CD3 specific ankyrin repeat domain and for some constructs by a human serum albumin specific ankyrin repeat domain.
(§3) Briefly, biotinylated human CD70, CD123 and CD33 was diluted in PBST (PBS, pH 7.4 containing 0.005% Tween 20®) and coated on a GLC chip (BioRad) to a level of around 200, 460 and 450 resonance units (RU) respectively. HSA in NaOAc pH 5.0 was directly immobilized on the GLC chip to a level of 800 RU. Bio.CD70, bio. CD33 and bio. CD123 required to have Neutravidin coated first to a level of 6000 RU before the biotinylated targets could be applied. The interaction of the selected ankyrin repeat proteins and human CD70, CD123 and CD33 was then measured by injecting 300 μl running buffer (PBS, pH 7.4 containing 0.005% Tween 20®) containing serial dilutions of ankyrin repeat proteins covering a concentration range between 100 nM and 2.6 nM (100, 40, 16, 6.4 and 2.6 nM respectively) for multi-trace SPR measurements, with an association of 120 s and dissociation of 1200 s using a constant flow of 100 μl/min. The regeneration was performed using 30 μl of 4 mM Glycine pH 2. The signals (i.e. resonance unit (RU) values) of the interspots and a reference injection (i.e. injection of running buffer only) were subtracted from the RU traces obtained after injection of ankyrin repeat protein (double-referencing).

[7] = biological target: T6, biotinylated extracellular domain of human CD123 (SEQ ID NO: 88), Fc and Avi tagged (human, UniProt P26951 19-303, biotinylated with BirA-GST (Avi tag)); test: SPR (ProteOn XPR36), target on GLC chip
T6 construct: also called hCD123
T6 sequence: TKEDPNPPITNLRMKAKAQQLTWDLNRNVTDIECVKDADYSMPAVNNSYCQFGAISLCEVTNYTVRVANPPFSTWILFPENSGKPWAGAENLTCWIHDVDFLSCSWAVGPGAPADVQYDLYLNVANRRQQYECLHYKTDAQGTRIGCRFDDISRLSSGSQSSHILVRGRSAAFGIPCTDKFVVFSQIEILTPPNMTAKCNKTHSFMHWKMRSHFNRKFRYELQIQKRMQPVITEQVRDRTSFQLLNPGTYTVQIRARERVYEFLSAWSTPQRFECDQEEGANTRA
Excerpt: as §2, §3

B1: DARPin® protein #8 (designed binder)
chain: DLGKKLLEAARAGQDDEVRILMANGADVNALDWLGHTPLHLAAYEGHLEIVEVLLKNGADVNAIDDNNGFTPLHLAAIDGHLEIVEVLLKNGADVNAQDKFGKTAFDISIDNGNEDLAEILQKAAGSPTPTPTTPTPTPTTPTPTPTGSDLGDKLLLAATSGQDDEVRILLAAGADVNAKDYDGDTPLHLAADEGHLEIVEVLLKAGADVNAKDYSGSTPLHAAAAYGHLEIVEVLLKAGADVNAQDVFGYTPADLAAYVGHEDIAEVLQKAAGSPTPTPTTPTPTPTTPTPTPTGSDLGQKLLEAAWAGQDDEVRELLKAGADVNAKNSRGWTPLHTAAQTGHLEIFEVLLKAGADVNAKDDKGVTPLHLAAALGHLEIVEVLLKAGADVNAQDSWGTTPADLAAKYGHEDIAEVLQKAA
notes: CD123-CD33-CD3 ankyrin repeat protein, no half-life extension; also called DARPin® #8; not shown: N-terminal His-tag
- EC50 [1]: 0.25 to 0.4 µM
- Kd [2]: ~0.035 µM
- koff [2]: 0.0015 s⁻¹
- kon [2]: ~49000 M⁻¹ s⁻¹

B4: DARPin® protein #14 (designed binder)
chain: DLGKKLLEAARAGQDDEVRELLKAGADVNAKDYFSHTPLHLAARNGHLKIVEVLLKAGADVNAKDFAGKTPLHLAAADGHLEIVEVLLKAGADVNAQDIFGKTPADIAADAGHEDIAEVLQKAAGSPTPTPTTPTPTPTTPTPTPTGSDLGKKLLEAARAGQDDEVRILMANGADVNALDWLGHTPLHLAAYEGHLEIVEVLLKNGADVNAIDDNNGFTPLHLAAIDGHLEIVEVLLKNGADVNAQDKFGKTAFDISIDNGNEDLAEILQKAAGSPTPTPTTPTPTPTTPTPTPTGSDLGDKLLLAATSGQDDEVRILLAAGADVNAKDYDGDTPLHLAADEGHLEIVEVLLKAGADVNAKDYSGSTPLHAAAAYGHLEIVEVLLKAGADVNAQDVFGYTPADLAAYVGHEDIAEVLQKAAGSPTPTPTTPTPTPTTPTPTPTGSDLGQKLLEAAWAGQLDEVRILLKAGADVNAKNSRGWTPLHTAAQTGHLEIFEVLLKAGADVNAKTNKRVTPLHLAAALGHLEIVEVLLKAGADVNARDTWGTTPADLAAKYGHRDIAEVLQKAA
notes: HSA-CD123-CD33-CD3, half-life extended form of #10; not shown: His-tag implied by anti-penta-His detection
- EC50 (read off the curve) [3]: ~0.02 µM

B5: DARPin® protein #29 (designed binder)
chain: DLGYKLLQAAYDGQLDEVRILLKAGADVNAKDSRGQTPLHYAASIGHLEIVEVLLKAGADVNAKDDHGWTPLHLAAWSGHLEIVEVLLKAGADVNAQDQEGTTPADLAAVQGHQDIAEVLQKAAGSPTPTPTTPTPTPTTPTPTPTGSDLGVKLLLAASRGQLDEVRILLKAGADVNAKDIDEGYTPLHIAAYYGHLEIVEVLLKAGADVNAKDRYGKTPLHLAAISGHLEIVEVLLKAGADVNAQDDKGDTPADLAADYGHQDIAEVLQKAAGSPTPTPTTPTPTPTTPTPTPTGSDLGQKLLEAAWAGQDDEVRELLKAGADVNAKNSRGWTPLHTAAQTGHLEIFEVLLKAGADVNAKDDKGVTPLHLAAALGHLEIVEVLLKAGADVNAQDSWGTTPADLAAKYGHEDIAEVLQKAA
notes: CD70-CD33-CD3; not shown: N-terminal His-tag
- EC50 [4]: 0.00197 µM
- Kd [5]: 0.0048 µM
- Kd [6]: 0.00018 µM
- binding result (human serum albumin): no binding (tested: 100 nM (highest concentration))
- binding result [7]: no binding (tested: 100 nM (highest concentration))

Results, then the binder that gave them:

- binding result [3]: no binding
B2: DARPin® protein #7 (designed binder)
chain: B1 chain with N329D, R331Q
notes: CD123-CD33-CD3 ankyrin repeat protein, no half-life extension; also called DARPin® #7; not shown: N-terminal His-tag

- binding result [3]: no binding (tested: about 3000 nM)
B3: DARPin® protein 11 (designed binder)
single chain: B4 chain with L460D, I465E, N477D, R479Q, T510D, N511D, R513G, R542Q, T544S, R559E
notes: half-life extended format of DARPin® protein #7; also called HSA-CD123-CD33-CD3
